System: STAT6
Test: Screening of full-length cDNA clones for promotion of STAT6 activation (luciferase reporter N4×8-luc)
Type: cell-based
Settings: NIH3T3 cells cotransfected with N4×8-luc reporter and cDNA plasmid; 48 h culture, then mouse IL-4 0.5 ng/ml for 6 h
Experimental: As a preferable method, NIH3T3 cells are inoculated on 10% FBS (Fetal Bovine Serum)-containing IMDM medium in a 96-well cell culture plate to a final cell density of 1×10^4 cells/well, and cultured for 24 hours at 37° C., in the presence of 5% CO2. Then, the luciferase reporter plasmid N4×8-luc which has a STAT6 response sequence, and the expression vector are cotransfected into the cells in a well using FuGENE 6 (Roche). After 48 hours of culture at 37° C., in the presence of 5% CO2 mouse IL-4 (Immuno Biological Laboratories Co., Ltd.) is added to a final concentration of 0.5 ng/ml. After culturing for further 6 hours, promoting activity for STAT6 activation is then measured by measuring luciferase activity using a long term luciferase assay system, Picagene LT2.0 (Toyo Ink Mfg). For example, luciferase activity can be measured using PerkinElmer's Wallac ARVOTMST 1420 MULTILABEL COUNTER. The method for gene introduction by FuGENE6, and measurement of luciferase activity by Picagene LT2.0 can be performed respectively according to the attached protocols. In a method of gene introduction with a 96-well plate using FuGENE6, the amount of FuGENE6 per 1 well is suitably 0.3 to 0.5 μl, preferably 0.3 μl; the amount of N4×8-luc reporter plasmid is suitably 50 to 100 ng, preferably 100 ng; and the amount of expression vector is suitably 50 to 100 ng, preferably 100 ng. An ability (action) to promote STAT6 activation refers to an ability to increase the reporter activity (luciferase activity) relative to the control experiment (for cells into which the reporter gene and a null vector were introduced). Increase in reporter activity is preferably by a factor of 1.5 or more, more preferably by a factor of 3 or more, and still more preferably by a factor of 6 or more.
NIH3T3 cells (purchased from Dainippon Pharmaceutical) were grown to 1×10^4 cells/well in a 96 well plate for cell culture for 24 hours at 37° C. (in the presence of 5% CO2) using 10% FBS containing IMDM medium. Then, 100 ng of luciferase reporter plasmid N4×8-luc having a STAT6 response sequence and 2 μl of the full-length cDNA prepared in above Example 1.(3) were cotransfected into the cells in a well using FuGENE 6 (purchased from Roche) according to the manufacturer's protocol. The luciferase reporter plasmid N4×8-luc having the STAT6 response sequence was constructed as follows. […] 157, 2058-2065 (1996)], oligonucleotides having the following sequences were synthesized:
The synthesized oligonucleotides were dissolved in sterile water to be 1μg/μl, respectively, mixed in 10 μl lots, and adjusted the volume to 32 μl with sterile water. The solution was heated for 5 min at 90° C., and gradually cooled down to room temperature to prepare a double-stranded oligonucleotide solution. The solution was reacted with T4 polynucleotide kinase (Takara Shuzo) according to the attached manual, then the reaction product was purified in a usual manner. Separately, SV40 promoter region of pGL3-Promoter vector (Promega) was replaced by the HSV thymidine kinase promoter sequence (from −50 to +10) with Hind III site and BglII site to construct a vector tk-luc. The aforesaid double-stranded oligonucleotide fragments were inserted into the XhoI site of this tk-luc vector using T4 DNA ligase (GIBCO/BRL). The obtained clones were sequenced according to a usual method, and clones in which plural oligonucleotide fragments were inserted were selected. […] The four-interlinked DNA fragments were excised from the N4×4-luc with a XhoI and a BglII site and purified to be inserted into a BamHI and a XhoI site of pBluescript II KS+ (Stratagene). The four-interlinked DNA fragments were excised from this plasmid with KpnI and SpeI and inserted into a KpnI and a NheI site of N4×4-luc plasmid to finally obtain N4×8-luc.

B1: 50 (nucleic acid, listed as Homo sapiens)
chain: AATTCAACATGGCAGCCATGCGCTGGCGATGGTGGCAGCGGCTGTTACCTTGGAGGTTGCTGCAGGCCCGTGGCTTTCCACAAAATTCTGCACCCAGCCTGGGCCTAAGAGCGAGGACTTATTCCCAGGGCGACTGCTCGTATTCGCGCACGGCGCTGTATGATCTGCTCGGCGTCCCCTCCACAGCCACGCAGGCCCAAATCAAGGCGGCTTACTACCGTCAGTGCTTTCTCTACCACCCGGACCGCAACTCCGGGAGCGCGGAGGCCGCCGAGCGCTTCACGCGCATCTCCCAGGCCTACGTGGTGCTGGGCAGTGCCACCCTCCGTCGCAAGTATGATCGCGGCCTACTCAGCGACGAGGACCTGCGCGGACCTGGCGTCCGGCCCTCCAGGACGCCCGCACCCGACCCCGGCTCGCCGCGTACCCCGCCGCCCACCTCTCGGACCCACGACGGTTCTCGGGCCTCCCCCGGCGCCAACCGCACGATGTTCAACTTTGACGCCTTCTACCAGGCCCACTACGGGGAACAACTGGAGCGGGAACGGCGCCTGAGGGCCCGGCGGGAGGCCCTTCGCAAACGGCAGGAGTATCGGTCCATGAAAGGCCTCCGCTGGGAGGATACCCGAGACACGGCTGCCATTTTCCTCATCTTTTCAATCTTCATCATCATCGGCTTTTATATTTAATCGGAGAGAGAAGGGAAGGGGAGTGTCCCCAGCCAACCCCCCAGAAACGGCCTTTTTTCCTGCCTCTGAACCCTTGGCCGTTGATAGTCTACCTTTGCTGGGATCCGAAGGAACTGTACTCCCCCTGCCCTCCCCGACCCGCCCAGCTTAGCCGATGACCTGCACATCGCTCCACTGTGGTCCAGAAAAGGAGGCCTTTCGATGTCTGAGAAAGAGGCCCCACGCTGTAGAGTCCCGAAAGCCCAGGAGTGAAGGGGGTTCCTGGAGTCTCTAGGGTGCTTCTTCCAGAGTCTGTCTTCTTGCTTCCAGATGTGGTCAACTTCTGGAACACTCGCTGTAGCTTTATTGTTTAGCCCCAAGCAAGATTTATCTCCTCCTGCCCCGCATGTGTATGGTGGGCCTCTGTAACCTTGAAATGTGCAATGTGACCAATTGTTGACTACCAAAAGAAAAGGTCTGGGGTTGT
modifications: CDS (9)..(686)
Activity = (luciferase activity of the gene of each SEQ ID NO:)/(luciferase activity of pME18S-FL3): 18.5

Source: US20030092616A1, “STAT6 activation gene” (priority 2001, published 2003)
